Reference: patent US20090131638A1 (Eli Lilly, published 2009)

Assays:
recombinant human GDF-11 = target: T1, recombinant human GDF-11 (human, UniProt O95390 299-407); assay: cell-based or functional assay
T1 sequence (looked up): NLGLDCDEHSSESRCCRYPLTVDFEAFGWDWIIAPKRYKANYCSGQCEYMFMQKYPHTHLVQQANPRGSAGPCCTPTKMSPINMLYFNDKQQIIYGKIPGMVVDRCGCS

[1] = target: T2, human mature myostatin (dimeric form) (human, UniProt O14793 267-375); assay: cell-based or functional assay
T2 sequence: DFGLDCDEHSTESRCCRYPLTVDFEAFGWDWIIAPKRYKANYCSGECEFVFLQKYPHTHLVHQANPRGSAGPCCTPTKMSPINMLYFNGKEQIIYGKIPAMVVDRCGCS

[2] = target: T2, human mature myostatin (dimeric form); assay: KINEXA, calculated as KD x kon
Procedure: (§1) Binding affinity measurements for full-length monoclonal antibodies of the invention are determined using a Sapidyne KINEXA assay. NHS-activated fast-flow sepharose beads (GE Healthcare) are pre-coated with […] and blocked with 10 mg/ml BSA in 1 M Tris-HCl, pH 8.0. Then 2 pM, 4 pM, 40 pM of an antibody of the invention (e.g., 3-74/C1E4) is incubated with various concentration (e.g., 2.4 pM to 10 nM, serial dilutions) of myostatin in running buffer (PBS, 0.005% (v/v) Tween-20 and 1 mg/ml ovalbumin) for 10 hours at room temperature. […] The amount of bead-bound antibody is then quantified by passing a solution of fluorescent (Cy5) labeled goat ant-human Fc antibody (Jackson Immuno Research) diluted 1:4000 in running buffer over the beads. The measured fluorescence signal is proportional to the concentration of free antibody at equilibrium. Each concentration of myostatin is measured in duplicate. […]
(§2) The association rate constant (kₒₙ) for GDF-8 binding is also determined using a Sapidyne KINEXA assay. […] The dissociation rate constant (koff) is calculated using the expression koff=KD×kₒₙ. Full-length monoclonal antibody 3-74/C1E4 (operably linked to an IgG₄ Fc region) was measured using the described assay, the results obtained are listed below in Table 3.

[3] = target: T2, human mature myostatin (dimeric form); assay: KINEXA equilibrium assay, antibody and myostatin in solution, room temperature
Procedure: Binding affinity measurements for full-length monoclonal antibodies of the invention are determined using a Sapidyne KINEXA assay. NHS-activated fast-flow sepharose beads (GE Healthcare) are pre-coated with […] and blocked with 10 mg/ml BSA in 1 M Tris-HCl, pH 8.0. Then 2 pM, 4 pM, 40 pM of an antibody of the invention (e.g., 3-74/C1E4) is incubated with various concentration (e.g., 2.4 pM to 10 nM, serial dilutions) of myostatin in running buffer (PBS, 0.005% (v/v) Tween-20 and 1 mg/ml ovalbumin) for 10 hours at room temperature. To determine the free antibody present at equilibrium, each sample is passed through the myostatin-coated beads. The amount of bead-bound antibody is then quantified by passing a solution of fluorescent (Cy5) labeled goat ant-human Fc antibody (Jackson Immuno Research) diluted 1:4000 in running buffer over the beads. The measured fluorescence signal is proportional to the concentration of free antibody at equilibrium. Each concentration of myostatin is measured in duplicate. The equilibrium dissociation constant (KD) is obtained from non-linear regression of the competition curves using a multiple-curve, one-site homogeneous binding model (KINEXA software).

[4] = target: T2, human mature myostatin (dimeric form); assay: KINEXA kinetic assay, 2 pM antibody mixed with 20 pM GDF-8
Procedure: as §1, §2

B1: Fab 3-74/C1E4 (Fab, V domains shown)
VH: EVQLVESGGGLVQPGGSLRLSCAASGLTFSRYPMSWVRQAPGKGLEWVSAITSSGGSTYYSDTVKGRFTISRDNAKNTLYLQMNSLRAEDTAVYYCARLPDYWGQGTLVTVSS
VL: EIVLTQSPGTLSLSPGERATLSCRASSSVSSSYLHWYAAKPGQAPRLLIYSTSNLVAGIPDRFSGSGSGTDFTLTISRLEPEDFAVYYCQHYSGYHFTFGGGTKVEIK
For B1, which “IC50 GDF11 (GDF-11/SBE luciferase reporter assay, 293E cells)” value (recombinant human GDF-11) is on record?
Its value is 4 nM.

And the “IC50 GDF8 (myostatin/SBE luciferase reporter assay, 293E cells)” value [1]?
Its value is 1 nM.

B2: Full-length monoclonal antibody 3-74/C1E4 (operably linked to an IgG4 Fc region) (antibody, V domains shown)
VH: EVQLVESGGGLVQPGGSLRLSCAASGLTFSRYPMSWVRQAPGKGLEWVSAITSSGGSTYYSDTVKGRFTISRDNAKNTLYLQMNSLRAEDTAVYYCARLPDYWGQGTLVTVSS
VL: EIVLTQSPGTLSLSPGERATLSCRASSSVSSSYLHWYAAKPGQAPRLLIYSTSNLVAGIPDRFSGSGSGTDFTLTISRLEPEDFAVYYCQHYSGYHFTFGGGTKVEIK
notes: also called Mab 3-74/C1E4
For B2, which koff [2] is on record?
Its koff is 2.08e-06 s⁻¹.

What about the Kd [3] of the same binder?
The Kd was 0.00139 nM.

What about the kon [4] of the same binder?
The kon was 1.49e+06 M⁻¹ s⁻¹.
